Paper doi:10.1101/789909 (bioRxiv, 2019)

T1: EcTatBC with 6xHis tag (complex of TatB and TatC), purified (E. coli, UniProt P69425 1-171; P69423 1-258)
T1 sequence 1: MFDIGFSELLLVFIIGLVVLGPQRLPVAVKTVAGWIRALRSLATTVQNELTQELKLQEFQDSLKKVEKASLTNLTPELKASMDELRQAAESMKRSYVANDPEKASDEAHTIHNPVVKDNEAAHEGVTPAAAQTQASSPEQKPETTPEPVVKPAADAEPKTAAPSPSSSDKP
T1 sequence 2: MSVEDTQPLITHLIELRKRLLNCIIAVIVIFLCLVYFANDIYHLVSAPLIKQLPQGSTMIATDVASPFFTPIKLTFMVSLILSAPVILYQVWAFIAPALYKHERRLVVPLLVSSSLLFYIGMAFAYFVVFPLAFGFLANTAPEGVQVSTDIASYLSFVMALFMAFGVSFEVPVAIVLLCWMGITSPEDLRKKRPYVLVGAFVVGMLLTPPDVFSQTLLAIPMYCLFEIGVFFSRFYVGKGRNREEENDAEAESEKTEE

B1: purified DmsD (natural protein)
chain: MTHFSQQDNFSVAARVLGALFYYAPESAEAAPLVAVLTSDGWETQWPLPEASLAPLVTAFQTQCEETHAQAWQRLFVGPWALPSPPWGSVWLDRESVLFGDSTLALRQWMREKGIQFEMKQNEPEDHFGSLLLMAAWLAENGRQTECEELLAWHLFPWSTRFLDVFIEKAEHPFYRALGELARLTLAQWQSQLLIPVAVKPLFR

Tests used:
purified DmsD (E. coli) = purified DmsD (E. coli) (UniProt P69853); assay: SPR
[1] = target: T1, EcTatBC with 6xHis tag (complex of TatB …); assay: SPR

| Molecule | Kd (purified DmsD (E. coli)) | binding result [1] |
| --- | --- | --- |
| ssDmsA_45 (printed ssDmsD_45), truncated form of ssDmsA-GFP (domain or fragment) | 55.9 nM |  |
| B1 |  | binds |
